Source: publication PMC10427004, “Restoration of energy homeostasis under oxidative stress: Duo synergistic AMPK pathways regulating arginine kinases” (PLOS Genetics, 2023)

Key:
[1] = system: Nc1ncnc2c1ncn2[C@@H]1O[C@H](COP(=O)(O)OP(=O)(O)O)[C@@H](O)[C@H]1O; assay: hexokinase / glucose-6-phosphate dehydrogenase coupled assay, A340, Lineweaver-Burk; assay type: biochemical, Tribolium castaneum; conditions: 5 mM phospho-L-arginine, 20 mM MgCl2, pH 7.5, 30 °C
[2] = system: Nc1ncnc2c1ncn2[C@@H]1O[C@H](COP(=O)(O)OP(=O)(O)OP(=O)(O)O)[C@@H](O)[C@H]1O; assay: pyruvate kinase / lactate dehydrogenase coupled assay, A340, Lineweaver-Burk; assay type: biochemical, Tribolium castaneum; conditions: 5 mM L-arginine, 20 mM MgCl2, pH 7.5, 30 °C

Row | Substance | Km [1] | Km [2]
1 | 6×His-TcAK1 (Tribolium castaneum; S129D) | 19.4 mM | 4.5 mM
2 | 6×His-TcAK1 (Tribolium castaneum; T247D) | 10.6 mM | 13.0 mM
